Measurements taken from PMC7762955, “Antibiotic binding releases autoinhibition of the TipA multidrug-resistance transcriptional regulator” (The Journal of Biological Chemistry, 2020).
Positions count from the first letter of the chain named. Names may count otherwise.

Assays:
[1] = target: SkgA (stationary-phase regulation of KatG protein), Caulobacter crescentus TipA-class transcriptional regulator, full length (Caulobacter crescentus); assay: not stated; SkgA in solution (Fig. S2A); method not given
[2] = target: SkgACC (S16C/E133C), double-cysteine mutant of SkgA (Caulobacter crescentus); assay: cross-linking; disulfide bonds between introduced cysteines; reduced and nonreduced 15% SDS-PAGE, Coomassie Brilliant Blue staining
[3] = target: the molecule itself; assay: SEC; analytical SEC, Superdex 200 10/300, 40 μM protein, 20 mM Tris-HCl pH 7.5, 150 mM NaCl, 1 mM DTT
mta promoter DNA = assay: Fluorescence polarization assay, mta promoter DNA binding; parameters: species or system Bacillus subtilis; settings: apo, FPA; for Kd: read-out: Kd, affinity with mta promoter DNA
Procedure: (§1) Fluorescence polarization assays (FPAs) were performed to test the structure-based hypothesis that α6–α7 plays a key role in communication between the ligand-binding and DNA-binding regions. […] Parallel experiments were also performed for Mta and SkgA proteins, and consistent results were obtained.
(§2) FPAs were performed in buffer consisting of 20 mM Tris-HCl, pH 7.5, 200 mM NaCl and 5% (v/v) glycerol at 298 K using a SpectraMax M5 microplate reader system (Molecular Devices, San Jose, CA, USA). The wavelengths of fluorescence excitation and emission were 486 and 525 nm, respectively. 26-bp dsDNA from the −10 and −35 regions of the tipA, mta, and skgA promoters with the sequences […], […], and […] were synthesized with a 5′-carboxyfluorescein label for the respective assays with TipAL, Mta, and SkgA proteins. For assays with thiostrepton supplementation, proteins were incubated with thiostrepton (Sigma) at a 1:1 ratio for 15 min prior to mixing with DNA in wells. Each well of a 384-well plate contained 10 nM of a fluorescently labeled DNA probe and different amounts of proteins with a final volume of 80 μl. DNA-free controls were included, and three replicates were performed for each reaction for each assay. The fluorescence polarization ΔP (in mP units) was calculated and fitted according to a one-site specific binding model using GraphPad Prism7 (GraphPad Software) with the function ΔP = ΔPmax[protein]/(Kd + [protein]).

[4] = target: the molecule itself; assay: cross-linking; disulfide bonds between introduced cysteines; reduced and nonreduced 15% SDS-PAGE, Coomassie Brilliant Blue staining
[5] = test system: tipA promoter DNA (ptipA); assay: Fluorescence polarization assay, tipA promoter DNA binding; parameters: species or system Streptomyces lividans; settings: apo, FPA; for Kd: read-out: Kd, affinity with the tipA promoter DNA (ptipA)
Procedure: as §1, §2

[6] = 10 nM 5'-carboxyfluorescein-labeled 26-bp dsDNA, 20 mM Tris-HCl pH 7.5, 200 mM NaCl, 5% glycerol, 298 K, ex 486/em 525 nm, one-site binding fit, three replicates, n.b. = printed in picture, not defined
[7] = no antibiotic, 10 nM 5'-carboxyfluorescein-labeled 26-bp dsDNA, 20 mM Tris-HCl pH 7.5, 200 mM NaCl, 5% glycerol, 298 K, ex 486/em 525 nm, one-site binding fit, three replicates, n.b. = printed in picture, not defined

Molecule: SkgA (stationary-phase regulation of KatG protein), Caulobacter crescentus TipA-class transcriptional regulator, full length (natural protein)
- stoichiometry N [1]: 2

Molecule: SkgACC (S16C/E133C), double-cysteine mutant of SkgA (natural protein)
- stoichiometry N [2]: 2

B1: TipAN (TipAL residues 1-109), N terminus of TipAL (domain or fragment, Streptomyces lividans, UniProt P0A4T9-1 1-109, looked up)
chain: MSYSVGQVAGFAGVTVRTLHHYDDIGLLVPSERSHAGHRRYSDADLDRLQQILFYRELGFPLDEVAALLDDPAADPRAHLRRQHELLSARIGKLQKMAAAVEQAMEARS
notes: its limits may differ from this construct; source: E. coli BL21 (DE3), purified (nickel-nitrilotriacetic acid, Superdex 200 SEC)
- stoichiometry N [3]: 2

B2: MtaH7: truncated protein containing the α6–α7 region, Mta residues 1–144 (protein, UniProt P71039 1-144, looked up, fragment)
chain: MKYQVKQVAEISGVSIRTLHHYDNIELLNPSALTDAGYRLYSDADLERLQQILFFKEIGFRLDEIKEMLDHPNFDRKAALQSQKEILMKKKQRMDEMIQTIDRTLLSVDGGETMNKRDLFAGLSMKDIEEHQQTYADEVRKLYG
- lower DNA-binding affinity than N-terminal truncation (mta promoter DNA; MtaH7 vs MtaN, range printed jointly for the three H7 truncations): 4–7 fold
- Kd (mta promoter DNA; [6]): 467 ± 67.4 nM

B3: MtaCC (S15C/E138C), double-cysteine mutant of Mta (natural protein, Bacillus subtilis, UniProt P71039 1-257, looked up)
chain: MKYQVKQVAEISGVCIRTLHHYDNIELLNPSALTDAGYRLYSDADLERLQQILFFKEIGFRLDEIKEMLDHPNFDRKAALQSQKEILMKKKQRMDEMIQTIDRTLLSVDGGETMNKRDLFAGLSMKDIEEHQQTYADCVRKLYGKEIAEETEKRTSAYSADDWRTIMAEFDSIYRRIAARMKHGPDDAEIQAAVGAFRDHICQYHYDCTLDIFRGLGEVYITDERFTDSINQYGEGLAAFLREAIIIYCDHQENPRP
modifications: disulfide bonds between the introduced cysteines of two protomers (nonreduced sample)
notes: source: E. coli BL21 (DE3), purified (nickel-nitrilotriacetic acid, Superdex 200 SEC)
- stoichiometry N [4]: 2

B4: Mta: B. subtilis multidrug transporter activation protein, TipA-class (protein)
chain: B3 chain with C15S, C138E
modifications: left off: His6, end not stated, state not stated
- Kd (mta promoter DNA; [6]): 496 ± 70.3 nM

B5: MtaCC (protein)
chain: B3 chain
modifications: disulfide bonds between the introduced cysteines of two protomers (nonreduced sample); left off: His6, end not stated, state not stated
- specific binding with mta promoter DNA (mta promoter DNA; double-cysteine mutant): did not show any specific binding
- Kd, affinity with mta promoter DNA (mta promoter DNA; [6]): n.b.

B6: TipAH7 (TipAL residues 1-140), TipAN plus the α6-α7 region (domain or fragment, Streptomyces lividans, UniProt P0A4T9-1 1-140, looked up)
chain: MSYSVGQVAGFAGVTVRTLHHYDDIGLLVPSERSHAGHRRYSDADLDRLQQILFYRELGFPLDEVAALLDDPAADPRAHLRRQHELLSARIGKLQKMAAAVEQAMEARSMGINLTPEEKFEVFGDFDPDQYEEEVRERWG
notes: as for B3
- stoichiometry N [3]: 2

B7: TipAH7: truncated protein consisting of TipAN and the α6–α7 region, TipAL residues 1–140 (protein)
chain: B6 chain
modifications: left off: His6, end not stated, state not stated
- lower DNA-binding affinity than N-terminal truncation ([5]; TipAH7 vs TipAN, range printed jointly for the three H7 truncations): 4–7 fold
- Kd [5, 7]: 318 ± 58.5 nM

B8: TipAL, full-length thiostrepton-induced protein A of Streptomyces lividans (natural protein, UniProt P0A4T9-1 1-253, looked up)
chain: MSYSVGQVAGFAGVTVRTLHHYDDIGLLVPSERSHAGHRRYSDADLDRLQQILFYRELGFPLDEVAALLDDPAADPRAHLRRQHELLSARIGKLQKMAAAVEQAMEARSMGINLTPEEKFEVFGDFDPDQYEEEVRERWGNTDAYRQSKEKTASYTKEDWQRIQDEADELTRRFVALMDAGEPADSEGAMDAAEDHRQGIARNHYDCGYEMHTCLGEMYVSDERFTRNIDAAKPGLAAYMRDAILANAVRHTP
notes: also called WT TipAL; full-length TipAL; source: E. coli BL21 (DE3), purified (nickel-nitrilotriacetic acid, Superdex 200 SEC)
- stoichiometry N [3]: 2

B9: TipALCC (protein)
chain: B8 chain with T15C, E134C
modifications: disulfide bonds between the introduced cysteines of two protomers (nonreduced sample); left off: His6, end not stated, state not stated
- ptipA DNA-binding ability ([5]; double-cysteine mutant): complete loss of DNA-binding ability
- Kd, affinity with the tipA promoter DNA (ptipA) [5, 7]: n.b.

B10: TipALCC (T15C/E134C), double-cysteine mutant of TipAL (natural protein, Streptomyces lividans, UniProt P0A4T9-1 1-253, looked up)
chain: B8 chain with T15C, E134C
modifications: disulfide bonds between the introduced cysteines of two protomers (nonreduced sample)
notes: as for B3
- stoichiometry N [4]: 2

B11: TipAL: full-length S. lividans TipA transcriptional regulatory protein (protein)
chain: B8 chain
modifications: left off: His6, end not stated, state not stated
notes: full-length S. lividans TipA transcriptional regulatory protein
- Kd [5, 7]: 380 ± 56 nM
